In the nanobody polyreactivity screen of Harvey et al. (2022):

Test: yeast display, Sf9 membrane polyspecificity reagent, FACS + sequencing; frameworks hold sequencing errors
In short: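 Sorting gates, low and high (top ~1%), were placed on anti-HA fluorescence to track expression and on streptavidin fluorescence to track reagent binding. A clone's polyreactivity label is taken from the gate it came out of. The reagent was 10% biotinylated, detergent-solubilized Sf9 membrane, applied for 1 hour at 4 °C to galactose-induced yeast display cells.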

Row | Sequence | polyreactivity (PSR sort gate)
1 | QVQLVESGGGLVQAGGSLRLSCAASGFTFTTYDMGWYRQAPGKERELVAAINSGGSTNYADSVKGRFTISRDNAKNTVYLQMNSLKPEDTAVYYCAAEFYWYYNNFFEDRYYWGQGTQVTVSS | low polyreactivity
2 | QVQLVESGGGLVQAGGSLRLSCAASGRNFRRYTMGWYRQAPGKERELVATISSGGSTYADSVKGRFTISRDNAKNTVYLQMNSVKPEDSAVYYCAAQTWGSGYGNIGRRRHDYWGQGTQVTVSS | high polyreactivity
3 | QVQLVESGGGLVQAGGSLRLSCAASGRTCKYYAMGWYRPAPGKEREEVAAINSGGITYYADSVKGRFTISRDNAKNTVYLQMNSLKPEDTAVYYCAKVWKIGVLRYPSYGYSYWGQGTQVTVSS | high polyreactivity
4 | QVQLVESGGGLVQAGRSLRLSCAASGSTFVHNAMGWYRQAPGKERELVAAISRSGGRTYYADSVKGRFTISRDNAKNTVYLQMNSLKPEDTAVYDCAAGLHWTRYPSAHYLFEYWGQGTQVTVSS | high polyreactivity
5 | QVQLVESGGGLVQAGGSLRLSCAASGRTFVGYAMGWYRQAPGKEREFVADITYDSGSTYYADSVKGRFTISRDNAKNTVYLQMNSLKPEETAVYYCAAPDYWAYTRSMDYWGQGTQVTVSS | high polyreactivity
6 | QVQLEESGGGLVQAGGSLRLSCAASGSTFHGYAMGWYRQEPGKERELVAAITSGDSTNYADSVKGRFTISRDNAKNTVYLQMNSLKPEDTAVYYCNAEGSSVLTGYWGYPPYWDTYDYWGQGTQVTVSS | low polyreactivity
7 | QVQLVESGGGLVQAGGSLRLTCAASGSIFTAYAMRLYRQAPGKERELVAAIDDSGDSTYYADSVKGRFTISRDNAKITVYLQMNSLKPEDTAVYYCKAEYRVNKEYDYWGQGTQVTVSS | low polyreactivity
8 | QVQLVESGGGLVQAGGSLRLSCAASGNIFLFYVMGWYRQAPGKERELVAAITLSGTNTYYADSVKGRFTISRDNAKNTVYLQMNSLKPEDTAVYYCNADWWSDGYDYWGQGTQVTVSS | low polyreactivity
9 | QVQLVESGGGLVQAGGSLRLSCAASGRIFDLNTMGWYRQAPGKERELVAAISSGGSTYYADSVKGRFTISRDNAKNTVYLQMNSLKPEDTAVYYCAADKIRGYRIRMYWGQGTQVTVSS | low polyreactivity
10 | QVQLVESGGGLVQAGGSLRLSCSASGRIFSRYAMGWYRQAPGKERELVATISSGGGTYYADSVKGRFTISRDNAKNTVYLQMNSLKPEDTAVYYCATRYPRKLRVPYDYWGQGTQVTVSS | high polyreactivity
11 | QVQLVESGGGLVQAGGSLRLSCAASGRIFRYYAIGWYRQAPGKERELVAVITSSGGSTYYADSVKGRFTISRDNAKNTVYLQMNSLKPEDTAVYYCAKDHRSYWGQGTQVTVSS | high polyreactivity
12 | QVQLVESGGGLVQPGGSLRLSCAASGRIFGRYAMGWYRQAPGKERELVAAISRGGTTNYADSVKGRFTISRDNAKNTVYLQMNSLKPEDTAVYYCAKSGPKRGQYDYWGQGTLVTVSS | high polyreactivity
13 | QVQLVESGGGLVHAGGSLRISCAASGRTFQRNAMGWYRQAPGKERELVAAISGGGSTYYADSVKGRFTISRDNAKNTVYLQMNSLKPEDTAVYYCAASSATRLYYFSRGYDYWGQGTQVTVSS | low polyreactivity
14 | QVQLQESGGGLVQAGGSLRLSCASSGTISQEDWKGWYRQAPGKEREFVAAIGLGSNTNYADSLKGRFTISRDNAKNTVYLQMNSLKPEDTAVYYCAVSVWQYSDHVYRGQGTQVTVSS | low polyreactivity
15 | QVQLVESGGGLVQAGGSLRLSCAASGSTFPDYAMGWYRQAPGKDRELVAAISGDSDDTYYADSVKGRFTISRDNAKNTVYLQMNSLKPEDTAVYYCAARRGRAVYSVAYDYWGQGTQVTVSS | high polyreactivity
16 | QVQLVESGAGLVQAGGSLGLSCAASGFTFRTYAMGWYRQAPGKERELVADISGSGGSTYYADSVKGRFTISRYNAKNTVYLQMISLKPEDTAVYYCAGTIYNWGYERDYWGQGTQVTVSS | high polyreactivity
17 | QVQLVESGGGLVQAGGSLRLSCAASGRIFGYNPMGWYRQAPGKERELVAAITTSGGSTYYADSVKGRFTISRDNAKNTVYLQMNSQKPEDTAVYYCARDSLQVFYPYASDDYWGQGTQVTVSS | low polyreactivity
18 | QVQLVESGGGLVQAGGSLRLSCAASGRTFWVYAMGWYRQAPGKERELVAAIRRGGITNYADSVKGRFTISRDNAKNTVYLQMNSLKPEDTAVYSCATDNYGYLTRYYYWGQGTQVTVSS | low polyreactivity
19 | QVQLVESGGGLVQAGGSLRLSCAASGSTFFPYAMGWYRQAPGKERELVAAITSGGRTKYADSVKGRFTISRDNAKNTVYLQMNSLKPEDTAVYYCAARGLIKEYGGPYRRFGYWGQGTQVTVSS | high polyreactivity
20 | QVQLVESAGGLVQAGGTLRLSCAATGRIVYLNAMGWYRQAPGKERELVAAISGSTGSTYYADSVKGRFTISRDNAKNTVYLQMMSLKPEDTAVYYCNAGGVYDEFNYWGQGTQVTVSS | low polyreactivity
21 | QVQLVESGGGLVQAGGSLLLSCAASGLTFYLYAMGWYRQAPGKERELVAPISRRGGSTYYADSVKGRFTISRDNAKNTVYFQMKSLKPEYTAVYYCAGAFYSQTDYKFYYWGQGTQVTVSS | high polyreactivity

Row | Sequence | polyreactivity (PSR sort gate)
22 | QVQLVESGGGLVQAGGSLRLSCAASGFTCLFYDMGWYRQAPGKERELVASITWSGTSTYADSVKGRFTISRDNAINTVYLQMNSLKPEDTAVYYCNAEPHGVKVSYDYWGQGTQVTVSS | low polyreactivity
23 | QVQLVESGGGLVQAGGSLRLSCAASGSTFKRYAMGWYRQAPGKERELVASISRSGGSTYYADSVKGRFTISRDNAKNTVYLQMNSLKPEDTAVYYCNARNRVYYTLSGYGYWGQGTQVTVSS | high polyreactivity
24 | QVQLVESGGVLVQAGGSLRLSCAASGSIFDWYVMGWYRQAPGKERELVAAITSTGSTYYADSVKGRFTISLDNAKNTVYLQMNSLKPEDTAVYYCATSFYVYPSYYIMDYWGQGTQVTVSS | low polyreactivity
25 | HVQLVESGGGLVQAGGSLRLSCAASGSSSAKYAMGWYRQAPGKERELVAAITSRADSTYYADSVKGRFTISRDNAKNTVYLQMNSLKPEDTAVYYCNVRITVYRSDVWYFIYDYWGQGTQVTVSS | low polyreactivity
26 | QVQLVESGGGLVQAGGSLRLSCAASGSIFNYYAMGWYRQAPGKERELVAAITSADGRTFYADSVKGRFTISRDNANNTVYLQMNSLKPDDTAVYYCAAERTSRYSTYEYWGQGTQVTVSS | low polyreactivity
27 | QVQLEESGGGLVQAGGSLRLSCAASGFIFYIYAMGWYRQAPGKERELVAAITSGGSTNYADSVKGRFTITRDNAKNTVYLQMNSLKPEDTAVYYCAADSYYGYDYWGQVTQVTVSS | low polyreactivity
28 | QVQLVESGGGLVQAGGSLRLSCAASGFIFRWYAMGWYRQAPGKERELVATITRGGGSTYYADSVKGRFTISRDNAKNTVYLQMNSLKPEDTAVYYCAKSVTGWRGLWYTPRNYYWGQGTQVTVSS | high polyreactivity
29 | QVQLVESGGGLVQAGGSLRLSCAASGSNFGSYTMGWYRQAPGKERELDAAITSGGGNTYYADSVKGRFTISRDNAKNTVYLQMNSLKPEDTAVYYCNATVRGRNALGRVQKYYYWGQGTQVTVSS | high polyreactivity
30 | QVQHVESGGGLVQSGGSLRLSCAASGRIFDYNAMGWSRQAPGKERELVAAITSSSGSSTYYADSVKGRFTISRDNAKNTVYLQMNSLIPVDTAVYYCNAGGSDIYLSPFDYWGQGTQVTVSS | low polyreactivity
31 | QVQLQEGGGLVQAGGSLRLSCAASGYISSRPAMGWYRQAPGLERAFVATIADGTSTDYADSVKGRFTISRDNAKNTVYLQMYRLQPEDTAVNYCAAAYNTQYYLSYWGQGTQVTVRS | high polyreactivity
32 | QVQLVESGGGLDQAGGSLRLSCAASGSTFGGNAMGWYRQAPGKERELVAAISGGDRTNYADSVKGRFTISRDNAKNSVYLQMNSLKPEDTAVYYCAADAGYWDLRSGIYKEDYWGQGTQVTVSS | low polyreactivity
33 | QVQLVESGGGLVQAGGSLRLSCAASGFTFRYNAMGWYRQAPGKERELVAAISRGTITNYADSVKGRFTISRDNAKNTVYLQMNSLKPEDTAVYYCAARYPGHFRFYYWGQGTQVTVSS | high polyreactivity
34 | QVQLVDSGGGLVQAGGSLRLRCAASGRIFWYYAMGWYRQAPGKERELVASITRGNNTYYADSVKGRFTISRDNAKNTVYLQMNSLKPEVTAVFYCAKRYIYSYYWGQGTQVTVSS | high polyreactivity
35 | QVQLVESGAGLVQAGGSRRLSCAASGFTFKSYAMGLYRQAAGKERELVAAINRSGGSTYYADSVKGRFTISRDYAMNTVYLQMNSLSPDDTAVYYCAAVKPPDYYYWGQGTQVTVSS | high polyreactivity
36 | QVQLVESAGGLVQAGGSLSLSCAASGILVYNAMGWYRQAPGKQRELVAAISARGGRTYYADSVKWRFTISRDNAKNTVYLQMNSLKTEDTAVSYCATLETTGVNYWGQGTQVTVSS | high polyreactivity
37 | QVQLVDSGGGLVQAGGSLRLSCAASGFIFSSYAMGWYRQAPGKERELVAAITRSGGRTYYADSVKGRFTISRDNAKNTVYLQMNSLKQEDTAVYYCAAPNGAGYRGDYWGQGTQVTVSS | high polyreactivity
38 | QVQLVESGGGLVQAGGSLRLSCAACGFTFWKYAMGWYRQAPGKERELVAAITSGGNTYYADSVKGRFTISRDNAKNTVYLQMNSLKPEDTAVYYCATSGPRGWSLHDYWGQGTQVTVSS | high polyreactivity
39 | QVQLVESGGGLVQAGGSLRLSCAASGNIFSTYAMGWYRQAPGKERELVASISENGGSTYYADSVKGRFTISRDNAKNTVYLQMNSLKPEDTAVYYCNADAYVYFDDGDYWGQGTQVTVSS | low polyreactivity
40 | QVQLVESGRGLVQAGGSLRISCAASGRTFYSYAMGWYRQAPGKERELVAAITSSGGRTYYADSVKGRFTISRDNAKNTVYLQMNSLKPEDTAVYYCNKLRRSPNSQYYYWGQGTQVTVSS | high polyreactivity
41 | QVQLVESGGGLVQAGGSLRLSSAASGSTYDFKAMGWNRQAHGKERELFAAITGSGGSTDNADSVKGRFTISRDNAKNSVYLQMNSLKPEDTAVYYCNAGKTFDYRDGVGYDHWGQGTQVTVSS | low polyreactivity
